Article PMC3378762

Experiments:
[1] = tested on: CC(=O)NCCCNCCCCNCCCN; assay: steady-state oxygen consumption, oxygen electrode; format: biochemical, Saccharomyces cerevisiae; details: pH 9.0, 25 °C, 1.3 mM oxygen, 10% glycerol
[2] = tested on: NCCCNCCCCNCCCN; assay: steady-state oxygen consumption, oxygen electrode; format: biochemical, Saccharomyces cerevisiae; details: pH 9.35, 25 °C, 1.3 mM oxygen, 10% glycerol, pH 9.35
[3] = target: Lys315 (UniProt position 315, FGTNNKIFLEF); assay: kinetics; details: Oxidative half-reaction, N1-acetylspermine as amine substrate; cited from earlier work

Fms1 (Saccharomyces cerevisiae S288C; H67A)
Km ([1]; pH 9.0): 50 ± 13 µM
kcat ([1]; pH 9.0): 2.7 ± 0.1 s⁻¹
kcat/Km ([1]; pH 9.0): 54000 ± 14000 M⁻¹ s⁻¹
Km [2]: 1740 ± 310 µM
kcat [2]: 0.44 ± 0.03 s⁻¹
kcat/Km [2]: 250 ± 50 M⁻¹ s⁻¹

Fms1 (Saccharomyces cerevisiae S288C; H67N)
Km [1]: 18.6 ± 4.0 µM
kcat [1]: 1.35 ± 0.04 s⁻¹
kcat/Km [1]: 72500 ± 15000 M⁻¹ s⁻¹

Fms1 (Saccharomyces cerevisiae S288C; H67Q)
Km ([1]; pH 9.0): 47 ± 6 µM
kcat ([1]; pH 9.0): 3.9 ± 0.1 s⁻¹
kcat/Km ([1]; pH 9.0): 83000 ± 11000 M⁻¹ s⁻¹
Km [2]: 165 ± 25 µM
kcat [2]: 0.88 ± 0.01 s⁻¹

N1-acetylpolyamine oxidase (mouse PAO) (Mus musculus)
pKa [3]: 7.0
